In experiment [1] the target is HLA-B*18:01. In words: IEDB peptide-MHC binding, purified MHC/direct/fluorescence; filed as Kd, often an IC50 or EC50 that approximates it; ≥ and ≤ were set here for values at or beyond the usual limits of such assays.
The next experiment deals with HLA-A*30:01. In words: IEDB peptide-MHC binding, purified MHC/competitive/radioactivity; filed as Kd, often an IC50 or EC50 that approximates it; ≥ and ≤ were set here for values at or beyond the usual limits of such assays. As to conditions: source organism: Vaccinia virus WR.
The next experiment has as its target HLA-A*32:01. The experiment is described as above.
The target of experiment [2] is HLA-B*08:01. The experiment is described as above.
A further experiment has as its target HLA-B*15:01. The description is as above.
The target in the next experiment is HLA-B*15:03. The experiment is described as above.
Experiment [3] deals with HLA-A*02:01. In words: IEDB peptide-MHC binding, purified MHC/direct/fluorescence; filed as Kd, often an IC50 or EC50 that approximates it; ≥ and ≤ were set here for values at or beyond the usual limits of such assays.
The next experiment addresses HLA-A*03:01. Described as above.
The target in a further experiment is HLA-A*26:01. In words: IEDB peptide-MHC binding, purified MHC/competitive/fluorescence; filed as Kd, often an IC50 or EC50 that approximates it; ≥ and ≤ were set here for values at or beyond the usual limits of such assays. The conditions noted are these: source organism: Lechiguanas virus.
Experiment [4] concerns the target HLA-B*18:01. Described as above. The conditions noted are these: source organism: Lechiguanas virus.
Another experiment concerns the target HLA-B*27:03. The experiment is described as above. The conditions noted are these: source organism: Lechiguanas virus.
Another experiment has as its target HLA-B*39:01. The experiment is described as above. As to conditions: source organism: Lechiguanas virus.
The target in a further experiment is HLA-B*46:01. The description is as above. As to conditions: source organism: Lechiguanas virus.
A further experiment addresses HLA-B*51:01. Described as above. As to conditions: source organism: Lechiguanas virus.
Experiment [5] has as its target HLA-B*57:01. Described as above. The conditions noted are these: source organism: Lechiguanas virus.
Experiment [6] deals with HLA-B*57:01. In words: IEDB peptide-MHC binding, purified MHC/competitive/radioactivity; filed as Kd, often an IC50 or EC50 that approximates it; ≥ and ≤ were set here for values at or beyond the usual limits of such assays. As to conditions: source organism: Dengue virus 1 Brazil/97-11/1997.
The next experiment addresses HLA-A*01:01. In words: IEDB peptide-MHC binding, purified MHC/direct/fluorescence; filed as Kd, often an IC50 or EC50 that approximates it; ≥ and ≤ were set here for values at or beyond the usual limits of such assays. As to conditions: source organism: Mammarenavirus lassaense.
Another experiment has as its target HLA-A*11:01. Described as above. The conditions noted are these: source organism: Mammarenavirus lassaense.
Another experiment deals with HLA-A*31:01. The experiment is described as above. As to conditions: source organism: Mammarenavirus lassaense.
A further experiment concerns the target HLA-A*69:01. The description is as above. As to conditions: source organism: Mammarenavirus lassaense.
Experiment [7] addresses HLA-B*08:01. The experiment is described as above. The conditions noted are these: source organism: Mammarenavirus lassaense.
The target of another experiment is HLA-B*27:05. The experiment is described as above. The conditions noted are these: source organism: Mammarenavirus lassaense.
The target in another experiment is HLA-B*40:01. Described as above. The conditions noted are these: source organism: Mammarenavirus lassaense.
The next experiment concerns the target HLA-B*44:02. Described as above.
In a further experiment the target is HLA-B*48:01. The description is as above.
In the next experiment the target is HLA-B*58:01. The description is as above. The conditions noted are these: source organism: Mammarenavirus lassaense.
The target in the next experiment is HLA-B*53:01. In words: IEDB peptide-MHC binding, purified MHC/competitive/radioactivity; filed as Kd, often an IC50 or EC50 that approximates it; ≥ and ≤ were set here for values at or beyond the usual limits of such assays.
The target of experiment [8] is HLA-A*02:01. The experiment is described as above.
The target of another experiment is HLA-A*02:17. Described as above.
A further experiment has as its target HLA-A*02:03. Described as above.
A further experiment concerns the target HLA-B*44:03. Described as above. As to conditions: source organism: Murray valley encephalitis virus (strain MVE-1-51).
Another experiment deals with HLA-A*68:02. The experiment is described as above. The conditions noted are these: source organism: Dengue virus 2 Jamaica/1409/1983.
In a further experiment the target is HLA-B*35:01. Described as above. The conditions noted are these: source organism: Dengue virus 3 Singapore/8120/1995.
The mark [9] stands for this setting: source organism: Vaccinia virus WR.
The mark [10] stands for this setting: source organism: Mammarenavirus lassaense.
Setting [11] is: source organism: Dengue virus 1 Singapore/S275/1990.
[12] abbreviates: source organism: Dengue virus 1 Brazil/97-11/1997.
Setting [13] is: source organism: Dengue virus 4 Dominica/814669/1981.
Where [14] appears, read: source organism: Dengue virus 2 Jamaica/1409/1983.
Setting [15] is: source organism: dengue virus type 1.
The mark [16] stands for this setting: source organism: West Nile virus.
The mark [17] stands for this setting: source organism: Vaccinia virus Copenhagen.
Setting [18] is: source organism: Dengue virus 3 China/80-2/1980.

In general, Kd refers to the constant that tells how readily two partners part at equilibrium. With AEREPFQYF, the Kd in the experiment with HLA-B*18:01 [1] (source organism: Mycobacterium ulcerans) turned out to be 208 nM.

Turning to AINNRICVM, the Kd with HLA-A*30:01 is 135 nM; with HLA-A*32:01 (setting [9]), 1240 nM; with HLA-B*08:01 [2] (setting [9]), 423 nM; with HLA-B*15:01 (setting [9]) it was 50.6 nM; with HLA-B*15:03 (setting [9]), 65.1 nM.

Turning to ALLELFNAF, the Kd with HLA-A*30:01 came to 357 nM; in the experiment with HLA-A*32:01 (setting [9]) it was 166 nM; in the experiment with HLA-B*08:01 [2] (setting [9]), 2690 nM; with HLA-B*15:01 (setting [9]) it was 2.48 nM; with HLA-B*15:03 (setting [9]), 0.241 nM.

In the case of AMPKTIYEL, the equilibrium dissociation constant (Kd) with HLA-A*02:01 [3] (source organism: Orthohantavirus andesense) is 37.3 nM; in the experiment with HLA-A*03:01 (source organism: Lechiguanas virus), ≥ 20000 nM; with HLA-A*26:01 it was ≥ 20000 nM; in the experiment with HLA-B*18:01 [4], ≥ 20000 nM; with HLA-B*27:03, ≥ 20000 nM; with HLA-B*39:01, ≥ 20000 nM. Moreover, the Kd with HLA-B*46:01, with HLA-B*51:01 and with HLA-B*57:01 [5] was ≥ 20000 nM each time.

With AVFVDENQW, the Kd with HLA-B*57:01 [6] turned out to be 0.913 nM.

As to FLVDGLSSI, the Kd with HLA-B*15:03 (setting [9]) was found to be 3160 nM.

For FQYVSYSNF, the Kd with HLA-A*30:01 is 12500 nM; in the experiment with HLA-B*15:03 (setting [9]) it was 0.261 nM.

Regarding FVRSSPANF, the Kd with HLA-A*01:01, with HLA-A*02:01 [3] (setting [10]), with HLA-A*03:01 (setting [10]), with HLA-A*11:01, with HLA-A*31:01 and with HLA-A*69:01 was ≥ 20000 nM each time. The Kd with HLA-B*08:01 [7] is 2100 nM; with HLA-B*18:01 [1] (setting [10]), ≥ 20000 nM; with HLA-B*27:05 it was ≥ 20000 nM; with HLA-B*40:01, ≥ 20000 nM; in the experiment with HLA-B*44:02 (setting [10]) it was ≥ 20000 nM; with HLA-B*48:01 (setting [10]) it was ≥ 20000 nM. Besides, the Kd in the experiment with HLA-B*58:01 was ≥ 20000 nM.

Take HMEGVFHTMW: the Kd with HLA-B*53:01 (source organism: Dengue virus 4 Philippines/H241/1956) turned out to be 34.6 nM.

With IASTLIVTI, the Kd turned out to be 10.1 nM with HLA-A*30:01; 73.5 nM with HLA-A*32:01 (setting [9]); 8400 nM with HLA-B*08:01 [2] (setting [9]); 156 nM with HLA-B*15:01 (setting [9]); 110 nM in the experiment with HLA-B*15:03 (setting [9]).

Consider IHIPQSQLF, for which, in the experiment with HLA-B*15:03 (setting [9]), the Kd turned out to be 5.49 nM.

For ILLMRTTWAL, the Kd stood at 1.7 nM in the experiment with HLA-A*02:01 [8] (setting [11]), 21.7 nM with HLA-A*02:17 (setting [11]) and 12.2 nM in the experiment with HLA-B*08:01 [2] (setting [12]).

Take IPQWQPSKGW: the Kd in the experiment with HLA-B*53:01 (source organism: Dengue virus 3 Martinique/1243/1999) came out at 73.1 nM.

Turning to KLSMGLITI, the Kd worked out at 20.5 nM with HLA-A*02:01 [8] (setting [13]), 23.9 nM with HLA-A*02:03 (setting [13]), 1810 nM in the experiment with HLA-A*02:17 (setting [13]) and 19.8 nM with HLA-A*32:01 (setting [13]).

In the case of KQPEGVILF, the Kd with HLA-B*15:03 (setting [9]) was 3.65 nM.

As to KSHAAYIDY, the Kd with HLA-A*30:01 was 12 nM; with HLA-A*32:01 (setting [9]), 875 nM; with HLA-B*08:01 [2] (setting [9]), ≥ 77700 nM; in the experiment with HLA-B*15:01 (setting [9]), 1.84 nM; in the experiment with HLA-B*15:03 (setting [9]), 1.67 nM.

In the case of LALKEFKEF, the Kd with HLA-B*53:01 (setting [14]) was 1840 nM.

Take LEFEALGFL: the Kd with HLA-B*18:01 [1] (source organism: Alkhumra hemorrhagic fever virus) amounted to 2.8 nM; in the experiment with HLA-B*44:03, 4970 nM.

LSIFFYSSF: the Kd in the experiment with HLA-A*30:01 turned out to be 131 nM; in the experiment with HLA-A*32:01 (setting [9]), 129 nM; with HLA-B*15:01 (setting [9]) it was 17.3 nM; with HLA-B*15:03 (setting [9]), 0.218 nM.

On to MCIKYTACM, for which the Kd with HLA-A*30:01 is ≥ 26600 nM; with HLA-A*32:01 (setting [9]), 16200 nM; with HLA-B*08:01 [2] (setting [9]), 7.75 nM; in the experiment with HLA-B*15:01 (setting [9]) it was 954 nM; with HLA-B*15:03 (setting [9]), 51.9 nM.

Consider MMATIGIALL, for which the Kd was determined as 9.45 nM with HLA-A*02:01 [8] (setting [14]), 0.94 nM in the experiment with HLA-A*02:03 (setting [14]), 305 nM with HLA-A*02:17 (setting [14]) and 15 nM with HLA-B*15:01 (setting [14]).

Consider RASSGDSSF, for which the Kd with HLA-B*15:03 (setting [9]) was determined as 20.6 nM.

With REDQWCGSL, the results for the Kd with HLA-B*18:01 [1] (setting [15]) and in the experiment with HLA-B*44:02 (setting [15]) were 11600 nM and ≥ 20000 nM, respectively.

Turning to RQFYNANVL, the Kd with HLA-A*32:01 (setting [9]) is 37.2 nM; with HLA-B*15:03 (setting [9]), 0.236 nM.

Regarding RRWCFDGPR, the Kd with HLA-B*48:01 (setting [16]) is ≥ 20000 nM.

Take SKVFFGPIY: the Kd with HLA-B*15:03 (setting [9]) was found to be 1.02 nM.

For SLNTLTISF, the Kd with HLA-B*15:03 (setting [9]) came out at 475 nM.

On to SQVKCCHYF, for which the Kd with HLA-A*30:01 is 80.6 nM; with HLA-A*32:01 (setting [9]) it was 11400 nM; with HLA-B*08:01 [2] (setting [9]) it was 7240 nM; with HLA-B*15:01 (setting [9]), 0.921 nM; with HLA-B*15:03 (setting [9]) it was 0.92 nM.

Consider TLYAVATTFV, for which the Kd in the experiment with HLA-A*02:01 [8] (setting [14]) turned out to be 12.6 nM; with HLA-A*02:03 (setting [14]), 2.65 nM; with HLA-A*02:17 (setting [14]), 490 nM; with HLA-A*68:02, 11.5 nM.

Take VEGLGLQKL: the Kd with HLA-B*18:01 [1] (setting [16]) was found to be 1280 nM.

In the case of VSFNRVVIF, the figures for the Kd in the experiment with HLA-A*32:01 (setting [17]) and in the experiment with HLA-B*15:03 (setting [17]) were 559 nM and 1.05 nM, respectively.

As to YAMCLNTFVL, the Kd with HLA-A*02:01 [8] (setting [18]) was 11.4 nM; with HLA-A*02:17 (setting [18]), 110 nM; with HLA-B*35:01, 43.4 nM.

Regarding YGVLFSGVSW, in the experiment with HLA-B*53:01 (setting [12]), the Kd turned out to be 261 nM.

Values taken from the Immune Epitope Database (IEDB).
